Test results: the nanobody polyreactivity screen of Harvey et al. (2022)

experiment: yeast display, Sf9 membrane polyspecificity reagent, FACS + sequencing; frameworks hold sequencing errors
In short: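 Galactose-induced (36–48 hours) yeast carrying a synthetic nanobody display library were exposed to 10% biotinylated, detergent-solubilized Sf9 membrane reagent at 4 °C for 1 hour. FACS followed streptavidin microbead enrichment, using low and high (top ~1%) gates for expression (anti-HA) and reagent binding (streptavidin). Colony PCR, MiSeq 2 × 250 sequencing and CDR-length filtering followed. Labels for polyreactivity reflect the gate of origin.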

Row | Sequence | polyreactivity (PSR sort gate)
1 | QVQLVESGGGLVQAGGSLRLSCAASGRIFAWYAMGWYRQAPGKERELVAAISDSGRSTYYADSVKGRFTISRDNAKNTVYLQMNSLKPEDNAVYYCAADQVVYSAYWCDHYDYWGQGTQVTVSS | low polyreactivity
2 | QVQLVESGGGLVQAGGSLRLSCAASGRIFAYNAMGWSRQAPGKERELVAAITWSGGTTYYADSVKGRFTISRDNAKNTVYLQMNSLKPEDTAVYYCAASRRYGGYRFDYWGQGTQVTVSS | high polyreactivity
3 | QVQLVESGGGLVQAGGSLRLSCAASGRIFAYNAMGWYRQAPGKERELVAAISSSDDDTYYADSVKGRFTISRDNAKNTVYLQMNSLKPEDTAAYYCAAEWDTDRLWAGPRGSLYDYWGQGTQVTVSS | high polyreactivity
4 | QVQLVESGGGLVQAGGSLRLSCAASGRIFAYNARGWYRQAPGKERELVADISSGGNTYYADSVKGRFTISRDNAKNTVYLQMNSLKPEDTAVYYCAADIAWYTHYHRIFDYWGQGTQVTVSS | low polyreactivity
5 | QVQLVESGGGLVQAGGSLRLSCAASGRIFAYNTMGWYRQAPGKERELVAVITSGGSTNYADSVKGRFTISRDNAKNTVYLQMNSLKPEDTAVYYCNADPRLRQTRDYWGQGTQVTVSS | high polyreactivity
6 | QVQLVESGGGLVQAGGSLRLSCAASGRIFAYYAMGWYRQAPGKERELVAAINWSGDGTIYADSVKWRFTISRDNAKNTVYLQMNSLKPQDTAVYYCNADWTSYGFGTRLDYWGQGNQVTVSS | low polyreactivity
7 | QVQLVESGGGLVQAGGSLRLSCAASGRIFAYYAMGWYRQAPGKERELVAAISGGGGSTYYADSVKGRFTISRDNAKNTVYLQMNSLKPEDTAVYYCAARYTVYSATGRYYYWGQGTQVTVSS | high polyreactivity
8 | QVQLVESGGGLVQAGGSLRLSCAASGRIFAYYAMGWYRQAPGKERELVAAISRSGVSTYYADSVKGRFTISRDNAKNTVYLQMNSLKPEDTAVYYCAASWWYEIFDYWGQGTQVTVSS | low polyreactivity
9 | QVQLVESGGGLVQAGGSLRLSCAASGRIFAYYAMGWYRQAPGKERELVATISVTGGSTYYADSVKGRFTISRDNAKNTVYLQMNSLKPEDTAVYYCNVDPGTYWPYSGEDYWGQGTQVTVSS | low polyreactivity
10 | QVQLVESGGGLVQAGGSLRLSCAASGRIFCDNGMGWYRQAPAKESELVTYADSVKGLFTISRDNAKNTVYLQMNSLKPEDTAVYYCNKDPPRFSGLDENYWGQGTQVTVSS | low polyreactivity
11 | QVQLVESGGGLVQAGGSLRLSCAASGRIFCFNAMGWYRQAPGKERELVAAISGTGGSTYYADSEKGRFTISRDNAKNTVYLQMNSLKPEDTAVYYCAAFYNYYGQRYYYWGQGTQVTVSS | high polyreactivity
12 | QVQLVESGGGLVQAGGSLRLSCAASGRIFCKYAMGWYIQAPGKERELVAAISRSGASTYYADSVKGRFTISRDNAKNTVYLQMNSLKPEDTAVYYCAAVPPYNYRFRVYYWGQGTQVTVSS | high polyreactivity
13 | QVQLVESGGGLVQAGGSLRLSCAASGRIFDCYAMGWYSQAPGKERELVAAITSRGGSTYYADSVKGRFTISRDNAKNTVYLQMNSLKPEDTAVYYCAKRSTSRGYDYWGQGTQVTVSS | high polyreactivity
14 | QVQLVESGGGLVQAGGSLRLSCAASGRIFDDNAMGWYRQAPGKETELVAAISSSGGSTYYADSVKGRFTISRDNAKNSVYLQMNSLKPEDTAVYYCAKAPGQDTPYPYGYWGQGTQVTVSS | high polyreactivity
15 | QVQLVESGGGLVQAGGSLRLSCAASGRIFDDNTMGWYRQAPGKEREVVAAISVSGGRTYYADSVKGRFTISRDNAKNTVYIQMNSLKPEDTAVYYCNARLGPFWDYRLKNGTHDYWGQGTQVTVAS | high polyreactivity
16 | QVQLVESGGGLVQAGGSLRLSCAASGRIFDDYVMGWYRKAPGKERELVARISVRGGSTYYADSVKGRFTISRDNAKNTVYLQMNSLKPEDTAVYYCNAVFGGWLGPFDYWGQGTQVTVSS | low polyreactivity
17 | QVQLVESGGGLVQAGGSLRLSCAASGRIFDFNAMGWYRQAPGKEREFVAAIRTSGGDSTYYADSVKGRFTISRDNAKTTVYLQMNSLTPEDTAVYYCAKTVWWYYRYPFDYWGQGTQVTVSS | low polyreactivity
18 | QVQLVESGGGLVQAGGSLRLSCAASGRIFDGNAMGWYRKAPGKERELVATITRGGRTNYADSVKGRFTISRDNAKNTVYLQMNSLKPEDTAVYYCNAPIYGRYYDLDYWGQGTQVTVSS | low polyreactivity
19 | QVQLVESGGGLVQAGGSLRLSCAASGRIFDGNAMGWYRQAPGKERELVAAISSSGGSTYYADSVKGRFTISRDNAKNTVYLQMNSLKPEDTAVYYCAYPLRRTWGNYRYGYWGQGTQVTVSS | high polyreactivity
20 | QVQLVESGGGLVQAGGSLRLSCAASGRIFDGYAMGWYRQAPGKERELVAAISNGGGSTYYADSVKGRFTISRDNAKNTVYLQMNSLKPEDTAVYYCAARIFSRYTRNYWGQGTQVTVSS | high polyreactivity

Row | Sequence | polyreactivity (PSR sort gate)
21 | QVQLVESGGGLVQAGGSLRLSCAASGRIFDHNAMGWYRQAPGKERELVAAIDSGTSTNYADSVKGRFTISRDNAKNTVYLQMNSLKPEDTAVYYCARLLGPVRDKYDYDYWGQGTQVTVSS | low polyreactivity
22 | QVQLVESGGGLVQAGGSLRLSCAASGRIFDIYAMGWSRQAPGKERELVAAIDESGGSTYYADSVKGRFTISRDNAKNTVYLQMNSLKPEDTAVDYCATDDTWTIAYGWYWFTYEYWGQGTQVTVSS | low polyreactivity
23 | QVQLVESGGGLVQAGGSLRLSCAASGRIFDIYAMGWYRQAPGKEGELVAAIRLSSGTTYYADSLKGRITISRDYAKNNVYLQMSSVKQEDSAVYYCNAIYRRGRPGYYYWGQGTQVNVSS | high polyreactivity
24 | QVQLVESGGGLVQAGGSLRLSCAASGRIFDIYAMGWYRQAPGKERELVAAIDESGGSTYYADSVKGRFTISRDNAKNTVYLQMNSLKPEDTAVYYCATVDTWTISYGWYCFTYEYWGQCTQVTVSS | low polyreactivity
25 | QVQLVESGGGLVQAGGSLRLSCAASGRIFDIYAMGWYRQAPGKERELVAGITWRAGSTYYADSVKGRFTISRDNAKNTVYLQMNSLKPEDTAVYYCAAEVWVTDPYWGDFYYWGHGTQVTVSS | low polyreactivity
26 | QVQLVESGGGLVQAGGSLRLSCAASGRIFDIYGMGWYRQAPGKERELVAAITSGGSTYYADSVKGRFTISRDNAKNTVYLQMNSLKPEDTAVYYCAADSVLLKDTGYDYWGQGTQVTVSS | low polyreactivity
27 | QVQLVESGGGLVQAGGSLRLSCAASGRIFDKYAMGWYRQAPGKERELVAAITRSGGRTYYADSVKGRFTISRDNAKNTVYLQMNSLKPEDTAVYYCAARYVSRFDWGQGTQVTVSS | high polyreactivity
28 | QVQLVESGGGLVQAGGSLRLSCAASGRIFDLNAMGWYRQAPGKERELVAAISYSGDRTYYADSVKGRFTISRDNAKNTVYLQMNSLKPEDTAVYYCNVRKTWYGYSVTGRYDYWGQGTQVTVSS | low polyreactivity
29 | QVQLVESGGGLVQAGGSLRLSCAASGRIFDPYAMGGYRQAPGKERELVANITLRGGITYYADSVKGRFTISRDNAKNTVYLQMNSLKPEDTAVYDCNADGYPDVGAGTYGYWGQGTQVTVSS | low polyreactivity
30 | QVQLVESGGGLVQAGGSLRLSCAASGRIFDPYAMGWYRQAPGKERELVATITRSGGSTYYADSVKGRFTISRDNAKNTVYLQMNSLKPEDTAVYYCAVGDGFEYDWGQGTQVTVSS | low polyreactivity
31 | QVQLVESGGGLVQAGGSLRLSCAASGRIFDQYAMGWYRQAPGKERELVAAITSGGSTYYADSVKGRFTISRDNAKNTVYLQMNSLKPEDTAVYYCAAEWQWYGYVLYKYYYWGQGTQVTVSS | high polyreactivity
32 | QVQLVESGGGLVQAGGSLRLSCAASGRIFDRNAMGWYRPAPGKERELVAAISRRGGSTYYADSVKGRITISRDNAKNTVYLQMNSLKPEDTAVYYCAARFLYRSVKMDYWGQGTQVTVSS | high polyreactivity
33 | QVQLVESGGGLVQAGGSLRLSCAASGRIFDRNAMGWYRQAPGKERELVAAISWSGGRTYYADSVKGRFTISRDNAKNTVYLQMNSLKPEDTAVYYCAADHYPWWAWEFDYWGQGTQVTVSS | low polyreactivity
34 | QVQLVESGGGLVQAGGSLRLSCAASGRIFDRNAMGWYRQARGKARELVARIDPGDDTNYADSVKGRFTISRDNAKNKVYLQMNSLQPEDTAVYYCATDPDYVLYRTAYYEYDYWGQGTQVTVSS | low polyreactivity
35 | QVQLVESGGGLVQAGGSLRLSCAASGRIFDRYGMGWYRQAPGKERELLAAITSRGGSTYYADSVKGRFTISRDNAKNTVYLQMNSLKPEDTAVYYCAAYGRYGFGRVERYDYWGQGTQVTVSS | high polyreactivity
36 | QVQLVESGGGLVQAGGSLRLSCAASGRIFDSNAMGWYRPAPGKERELVAAISYDGGSTYYADSVKGRFTISRDNAKNTVYLQMNSLKPEDTAVYYCAADDGWYYYYGYDYWGQGTQVTVSS | low polyreactivity
37 | QVQLVESGGGLVQAGGSLRLSCAASGRIFDSNAMGWYRQAPGTEREFVAAITYSSGSTYYRNSVKGRFTISRDNAKNTVYLQMNSLKPEDTAVYYCAAVLYWRTLSSRYDYWGQGTQVTVSS | high polyreactivity
38 | QVQLVESGGGLVQAGGSLRLSCAASGRIFDTNAMGWYRQAPGKERELVAAISSSGGRTYYADSVKGRFTISRDNAKNTVYLQMNSLRPEDTAVYYCARVPITKDQYSHYYYWGQGTQVTVSS | high polyreactivity
39 | QVQLVESGGGLVQAGGSLRLSCAASGRIFDVYAMGWYRQAPGKERELVAAITWSGTSTYYADSVKGRFTISRDNAKNTVYLQMNSLKPEDTAVYYCAAEVAYTDTEYFWYYYWGQGTQVTVSS | high polyreactivity
40 | QVQLVESGGGLVQAGGSLRLSCAASGRIFDYNAMGWYRQAPGKERELVASITQRGDITYYADSVKGRFTISRDNAKNTVYLQMNSLKPEDTAVYYCNADGVRVWVLPYVLYTGDYWGQGTQVTVSS | low polyreactivity
